The record followed here is US20260234236A1 (INTERVET, published 2026).

Residue numbers refer to the chain shown, from its start. In names and notes the source's numbering stands.

B1: IL4-P4A-1F10VH-cIgGB/IL4-P4A-1F10VL-cCL (antibody, V domains shown)
VH: EVQLVQSGGDLVKPAGSLRLSCVASGFTFNSYAMSWVRQAPGKGLQWVAGINSGGSTTTYADAVKGRFTISRDNAKNTLYLQMNSLRAEDTAVYYCAKDQNSYYPSDTFEYWGQGTLVTVSS
VL: QTVVTQEPSLSVSPGGTVTLTCGLSSGSVSTGNYPGWYQQTQGRAPRSIIYDTNSRPSGVPDRFSGSISGNKAVLTITGAQPEDEADYYCSLYTGIAYTDVVFGGGTHLTVLG
notes: Full-length canine IgG-B; also called IL4-1F10; IL4 1F10
B2: IL4-P4A-1A10VH-cIgGB/IL4-P4-1A10VL-cCL (antibody, V domains shown)
VH: EVQLVESGGDLVKPGGSLRLSCVASGFTFSDYDMTWVRQAPGKGLQWVADINNGGSSTTYADAVKGRFTISRDNAKNTLYLQMNSLRAEDTAMYYCAKEGDNTWLSFDSWGQGTLVTVSS
VL: QSVLNQLPSVSGSLGQKVTIRCSGNTDNIGMVGAAWYRQVPGEAPKLLLYSDGNRPSGVPDRFSGSDSGRSATLTITGLQPEDEADYYCQSLDPTVPGNYLFGSGTQLTILG
notes: also called IL4-P4-1A10VH-cIgGB/IL4-P4-1A10VL-cCL
B3: IL4-P4A-2D11VH-cIgGB/IL4-P4A-2D11VL-cCL (antibody, V domains shown)
VH: EEQLVEFGGDLVKPGESLRLSCVASGFTFNKYDMSWVRQAPGKGLQWVATVADDESFAYYTDSVKGRFTISRDNAKNTLYLQMNSLRAEDTAMYYCVGKTGSYWDIDFDLWGPGTLVTISS
VL: QAVLTQPPSVSAALGQRVTISCSGSTDNVGTVGASWYQHLPGRAPKLLVYIVGDRPSGVPDRFSGSKSGTSATLTITGLQAEDEADYYCSSWDDSLRGIVFGGGTHLTVLG
notes: Full-length canine IgG-B; also called IL4-2D11
B4: IL13-P3-1B4VH-cIgGB/IL13-P3-1B4VL-cCL (antibody)
heavy: ELTLQESGPGLVKPSQTLSLTCVVSGGSVTSNYYWNWIRQRPGRGLEWMGYWTGSTNYNPAFQGRISITADTAKNHFSLQLTSMTTEDTAVYYCARASTWLHGMDFWGHGTSLFVSSASTTAPSVFPLAPSCGSTSGSTVALACLVSGYFPEPVTVSWNSGSLTSGVHTFPSVLQSSGLYSLSSMVTVPSSRWPSETFTCNVAHPASKTKVDKPVPKRENGRVPRPPDCPKCPAPEMLGGPSVFIFPPKPKDTLLIARTPEVTCVVVDLDPEDPEVQISWFVDGKQMQTAKTQPREEQFNGTYRVVSVLPIGHQDWLKGKQFTCKVNNKALPSPIERTISKARGQAHQPSVYVLPPSREELSKNTVSLTCLIKDFFPPDIDVEWQSNGQQEPESKYRTTPPQLDEDGSYFLYSKLSVDKSRWQRGDTFICAVMHEALHNHYTQESLSHSPGK
light: SYVLTQSPSVSGSLGQTVTISCSGTTIGVVGANWYQQLPGKAPKLLVHSDGGRLSGVPDRFSGSESGNSAALTITGLQAEDEADYYCQSFDTTLGYVFGSGTQLTILGQPKASPSVTLFPPSSEELGANKATLVCLISDFYPSGVTVAWKADGSPVTQGVETTKPSKQSNNKYAASSYLSLTPDKWKSHSSFSCLVTHEGSTVEKKVAPAECS
notes: Full-length canine IgG-B; also called IL13-1B4
B5: IL13-P3-1G5VH-cIgGB/IL13-P3-1G5VL-cCL (antibody, V domains shown)
VH: EVQLVQSGGDLVKPGGTLRLSCVASGFTFSSYDMSWVRQSPGKGLQWVAAIWNDGSNTEYADAVKGRFTVSRDNAKNTVYLEMNSLRAEDTAMYYCVKEGPSYGYFDYWGQGTLVTVSS
VL: SYELTQPPSVSVSLGQTATISCSGESLSKYYAQWFQQKAGQAPVLVIYQDTERPSGIPDRFSGSSSGNTHTLTISGARAEDEADYYCESAISPDTYVFGSGTQLTILG
notes: Full-length canine IgG-B; also called IL13-1G5
B6: IL13-P3-05VH-cIgGB/IL13-P3-05VL-cCL (antibody, V domains shown)
VH: EVQLVESGGDSVRPGGSLRLSCVASGFTFSRYNMGWVRQAPGKGLQWVAWIYDGGSRTSYADAVKGRFTISRDNAKDTLYLQMDDLRVDDTAVYYCARDPSSWGSLFDYWGQGTLVTVSS
VL: SYVLTQPPSVTVPLRQTARISCGGDNIRSKNVHWYQQKPGQAPVLIIYNDSNRPTGIPERFSGSNSGNMATLTIRGALAEDEADYYCQVWANDGYVFGSGTQLTVLG
notes: Full-length canine IgG-B
B7: IL13-P3-05VH-cIgGB/IL13-P3-05VLm-cCL (antibody, V domains shown)
VH: B6 VH
VL: B6 VL with N49Q
notes: Full-length canine IgG-B. The light chain has N replaced by Q in CDRL2 to remove a potential glycosylation site; also called IL13-P3-05Lm; IL-13 P3-05Lm
B8: IL13-P3-1C6VH-cIgGB/IL13-P3-1C6VL-cCL (antibody, V domains shown)
VH: ELTLQESGPGLVKPSQTLSLTCVVSGGSVTNTYEWDWIRQRPGRGLEWMGSWTDNTWYNPAFQGRISITADTAKNQLSLQLSSVTTGDTAVYFCARWTKRWGYDYWGQGTLVTVSS
VL: QSVLTQPASVSGSLGQRVTISCSGRTNNIGYFGANWYQQVPGKAPKLLVSSYGNRPSGVPDRFSASNSANSATLTITGLQAEDEADYYCQSFDTTLGAVVFGGGTQLTVLG

In the first experiment the target is T1, Recombinant canine IL-4 (R&D Systems, Catalog: 752-CL/CF) (canine, UniProt O77762 25-132).
T1 sequence (looked up): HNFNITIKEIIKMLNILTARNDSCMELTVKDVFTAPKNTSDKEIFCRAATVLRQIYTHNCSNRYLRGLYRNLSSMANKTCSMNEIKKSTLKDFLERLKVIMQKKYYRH
The experiment can be described thus: cell-based or functional assay.
For the molecule B1, the “IL-4 IC50 (nM); inhibition of canine IL-4 mediated STAT6 phosphorylation in DH82 cells” value (shortened to “IL-4 IC50 (nM); inhibition”) worked out at 0.58 nM.

For B2, the “IL-4 IC50 (nM); inhibition” value was 3.15 nM.

Turning to B3, the “IL-4 IC50 (nM); inhibition” value came out at 0.91 nM.

The next experiment deals with T2, Canine IL-4 with C-terminal Avi-HIS tag (canine, biotin label when loaded on SA biosensors (Example 4); site not stated).
T2 construct: also called cIL-4; biotinylated avitag-cIL-4
T2 chain: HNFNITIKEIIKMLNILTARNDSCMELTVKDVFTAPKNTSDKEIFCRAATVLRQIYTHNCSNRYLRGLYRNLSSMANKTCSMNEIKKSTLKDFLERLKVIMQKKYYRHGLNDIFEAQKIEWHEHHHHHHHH
The experiment can be described thus: DSS cross-linking and High-Mass MALDI MS. The text has this: In order to identify potentially discontinuous epitopes recognized by the antibodies of the present invention to their respective antigens, e.g., canine IL-4 or canine IL-13, a method was employed that was based on chemical crosslinking using disuccinimidyl suberate (DSS) and mass spectrometry detection (XL-MS) at CovalX Inc. (CovalX® Instrument Incorporated; Covalx.com). With this method, the binding of a canine antibody to its corresponding canine antigen in the presence of a mass-labeled chemical crosslinker is performed. The cross-linking experiments allow the direct analysis of non-covalent interaction by High-Mass MALDI (matrix assisted laser desorption ionization) mass spectrometry. […] The covalent binding generated allows the interacting species to survive the sample preparation process and the MALDI ionization. A High-Mass detection system allows characterizing the interaction in the High-Mass range.
The presence of the antigen-antibody complex were confirmed using High Mass MALDI detection. […]
For B3, the binding result was “binds”.

Another experiment addresses T2, Canine IL-4 with C-terminal Avi-HIS tag. The experiment can be described thus: BLI (OCTET HTX); biotin-mAb on SA biosensors, cIL-4 in solution; 1:1 model. The procedure:
(§1) Selected scFv specific to cIL-4 or cIL-13 were converted into full length canine IgG mAbs and tested for binding by OCTET. All kinetics measurements were performed by OCTET HTX using SA biosensors and Data Acquisition 12.0 software. First, each biotin-labeled full-length anti-canine IL-4 or anti-canine IL-13 mAb, at a concentration of 5 μg/mL, were loaded onto the pre-rehydrated SA biosensors until binding signal change ascended to a […] threshold for all channels from the step start or for a maximum of 1200s to insure equal loading density. Second, the biosensors were placed into OCTET Kinetics Buffer (PBS+0.02% Tween20, 0.1% BSA) for the blocking phase for 60s. Third, for the association phase, full-length anti-canine IL-4 mAb or anti-canine IL-13 mAb loaded biosensors were placed into 2-fold serial dilutions from 1000 nM down to 15.6 nM of cIL-4 or cIL-13, respectively, in OCTET Kinetics Buffer for 60s. The last well was buffer alone and that sensor was used for reference sensor subtraction. Finally, the biosensors were placed into OCTET Kinetics Buffer for the dissociation phase for 180s. Analysis was performed using Data Analysis 12.0 software and curves were fitted using a 1:1 binding model.
Usually Kd stands for the concentration at which binding is half-saturated. Low values mean tighter binding, high ones weaker binding. What is called koff is the rate constant with which the complex falls apart. Higher therefore signals a short-lived complex. What is called kon is the second-order rate constant of association. Lower therefore signals slower complex formation. On to B1, for which the Kd came to 0.305 nM, the koff was found to be 0.000114 s⁻¹ and the kon came out at 374000 M⁻¹ s⁻¹.

Regarding B2, the Kd stood at 0.846 nM, the koff worked out at 0.00105 s⁻¹ and the kon was 1.24e+06 M⁻¹ s⁻¹.

In another experiment the target is T3, Recombinant canine IL-13 (R&D Systems, Catalog: 5894-CL/CF) (canine, UniProt Q9N0W9 19-131, limits assumed).
T3 sequence (looked up): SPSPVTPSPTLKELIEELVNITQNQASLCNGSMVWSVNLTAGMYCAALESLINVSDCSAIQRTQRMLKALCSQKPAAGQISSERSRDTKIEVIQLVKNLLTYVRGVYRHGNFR
The experiment can be described thus: cell-based or functional assay.
Regarding B4, the “IL-13 IC50 (nM); inhibition of canine IL-13 mediated STAT6 phosphorylation in DH82 cells” value (“IL-13 IC50 (nM); inhibition” below) turned out to be 97.5 nM.

In the case of B5, the “IL-13 IC50 (nM); inhibition” value was determined as 94.1 nM.

As to B6, the “IL-13 IC50 (nM); inhibition” value is 13.1 nM.

In the case of B7, the “IL-13 IC50 (nM); inhibition” value stood at 4.44 nM.

Turning to B8, the “IL-13 IC50 (nM); inhibition” value stood at 47.9 nM.

For the next experiment, the target named is T4, Canine IL-13 with C-terminal Avi-HIS tag (canine, biotin label when loaded on SA biosensors (Example 4); site not stated).
T4 construct: also called cIL-13; biotinylated avitag-cIL13
T4 chain: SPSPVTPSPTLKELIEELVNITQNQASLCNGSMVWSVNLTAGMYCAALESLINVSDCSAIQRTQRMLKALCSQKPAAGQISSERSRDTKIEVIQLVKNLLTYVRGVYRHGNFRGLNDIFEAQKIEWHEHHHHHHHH
The experiment can be described thus: BLI (OCTET HTX); biotin-mAb on SA biosensors, cIL-13 in solution; 1:1 model. The procedure: as §1
B4 displayed a Kd of 8.12 nM, a koff of 0.00208 s⁻¹ and a kon of 256000 M⁻¹ s⁻¹.

With B5, the Kd amounted to 1.19 nM, the koff was 0.0018 s⁻¹ and the kon worked out at 1.3e+06 M⁻¹ s⁻¹.

B6 came in with a Kd of 5.58 nM, a koff of 0.00148 s⁻¹ and a kon of 252000 M⁻¹ s⁻¹.

The molecule B7 returned an equilibrium dissociation constant (Kd) of 5.45 nM, a koff of 0.000793 s⁻¹ and a kon of 162000 M⁻¹ s⁻¹.
